The results in this text go back to patent US20190241662A1 (ADAGENE, published 2019).

Substitutions are numbered along the chain they refer to.

Test [1] has as its target T1, full-length human CTLA4 expressed on cells (human, UniProt P16410 36-223).
T1 sequence (looked up): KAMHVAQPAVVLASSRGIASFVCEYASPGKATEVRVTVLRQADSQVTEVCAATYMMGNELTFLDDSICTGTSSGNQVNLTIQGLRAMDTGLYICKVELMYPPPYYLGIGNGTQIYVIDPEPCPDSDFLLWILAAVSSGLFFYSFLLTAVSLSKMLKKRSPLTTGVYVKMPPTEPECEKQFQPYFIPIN
The experiment in a line: cell-based or functional assay.

The target in test [2] is T2, recombinant human CTLA4 fused with human Fc and His tag (human, UniProt P16410 36-162, limits assumed).
T2 construct: Coated in the CD80 ELISA, biotinylated and in solution in the CD86 ELISA; also called biotinylated human CTLA4 fused with human FC and His tag
T2 sequence (looked up): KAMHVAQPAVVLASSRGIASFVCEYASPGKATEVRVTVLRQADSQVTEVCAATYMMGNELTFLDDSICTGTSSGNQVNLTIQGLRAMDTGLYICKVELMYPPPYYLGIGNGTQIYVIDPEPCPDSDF
In words: competition ELISA: plate-bound human CD86-Fc, biotinylated human CTLA4-Fc-His in solution. On the procedure: Plates were blocked with PBS supplemented with 2% (w/v) skim milk at 37° C. for 1 hour. […] Plates were washed four times, and 100 μL HRP-neutravidin (1:1000) were added to each well and incubated at 37° C. for 1 hr. Plates were washed as previously described, and 50 μL TMB substrate solution was added and incubated at room temperature for 5 minutes before the reaction was stopped by 50 μL sulfate acid (2M).
A general note: In an ELISA, binding on a coated surface is turned into a signal by an enzyme label.

The target in test [3] is T3, human PD1 on HEK293F cells (human, UniProt Q15116 25-288).
T3 construct: whole, on cells
In words: flow cytometry, transfected HEK293F cells. The protocol:
(§1) Antibody selectivity was next examined. Human CTLA4, PD1, LAG3, Tim3, B7H3, CD95, TNFR1, OX40, CD40, PD-L1, BLTA, VISTA, PDL2, ICOS and B7H4 were transiently overexpressed on the surface of HEK293F cells. Transfected cells were washed in pre-chilled 1×PBSA buffer (1.76 mM KH2PO4, 10.14 mM Na2HPO4.12H2O, 2.68 mM KCl, 136.89 mM NaCl and 1% BSA), then incubated with 100 nM test antibodies for 1 hour on ice. Cells were washed once with staining buffer, and Alexa Fluor® 647 conjugated mouse anti-human FC antibodies were added and incubated for 30 minutes on ice, protected from light. Samples were washed once with staining buffer prior to analysis by flow cytometry.
(In general: Flow cytometry measures light scatter and fluorescence of single cells or particles in a stream.)

Test [4] addresses T4, human LAG3 on HEK293F cells (human, UniProt P18627 23-525).
T4 construct: whole, on cells
T4 sequence (looked up): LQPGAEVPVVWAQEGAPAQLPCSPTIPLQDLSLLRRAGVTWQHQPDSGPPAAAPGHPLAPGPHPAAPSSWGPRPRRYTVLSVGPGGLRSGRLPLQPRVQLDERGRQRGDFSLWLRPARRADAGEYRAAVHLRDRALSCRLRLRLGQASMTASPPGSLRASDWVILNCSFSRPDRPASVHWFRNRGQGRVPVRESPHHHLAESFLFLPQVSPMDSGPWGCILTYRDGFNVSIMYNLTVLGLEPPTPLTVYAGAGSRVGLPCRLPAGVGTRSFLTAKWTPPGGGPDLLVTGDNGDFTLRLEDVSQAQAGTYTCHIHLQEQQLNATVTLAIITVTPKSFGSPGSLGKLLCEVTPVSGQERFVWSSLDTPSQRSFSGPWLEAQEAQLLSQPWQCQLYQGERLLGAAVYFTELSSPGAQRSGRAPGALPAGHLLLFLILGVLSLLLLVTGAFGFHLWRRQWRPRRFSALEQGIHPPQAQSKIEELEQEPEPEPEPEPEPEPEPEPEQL
In words: flow cytometry, transfected HEK293F cells. The protocol: as §1

In test [5] the target is T1, full-length human CTLA4 expressed on …. In words: flow cytometry, transfected HEK293F cells, 100 nM antibody [Cont.]. On the procedure:
as §1

Test [6] concerns the target T5, human Tim3 on HEK293F cells (human, UniProt Q8TDQ0 22-301).
T5 construct: whole, on cells
T5 sequence (looked up): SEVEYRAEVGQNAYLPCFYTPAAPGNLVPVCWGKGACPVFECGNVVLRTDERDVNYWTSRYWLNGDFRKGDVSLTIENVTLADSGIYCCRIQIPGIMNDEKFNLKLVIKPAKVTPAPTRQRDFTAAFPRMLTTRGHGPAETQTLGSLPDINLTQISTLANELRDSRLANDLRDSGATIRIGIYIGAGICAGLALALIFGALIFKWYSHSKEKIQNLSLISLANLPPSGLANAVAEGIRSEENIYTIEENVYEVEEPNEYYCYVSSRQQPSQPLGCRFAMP
In words: flow cytometry, transfected HEK293F cells [Cont.]. On the procedure:
as §1

The target of test [7] is T6, human CD40 on HEK293F cells (human, UniProt P25942 21-277).
T6 construct: whole, on cells
The experiment in a line: flow cytometry, transfected HEK293F cells [Cont.]. The protocol:
as §1

Test [8] addresses T1, full-length human CTLA4 expressed on …. In words: flow cytometry blocking: HEK293F cells with human CTLA4, 100 nM antibody, then 100 nM CD86-Fc-Bio (blocked ligand); PBSA panel: Mean 10678, 12.2%. The protocol: Antibodies were also tested for their ability to block binding of CTLA4 to its cognate ligands CD80 and CD86 by flow cytometry. The plasmid encoding full-length human CTLA4 was transiently expressed in HEK293F cells. Cells were washed with staining buffer (PBSA buffer including 1.76 mM KH₂PO₄, 10.14 mM Na₂HPO₄.12H₂O, 2.68 mM KCl, 136.89 mM NaCl and 1% BSA), and resuspended in staining buffer containing 100 nM test antibodies. […] Cells were washed once, and analyzed by CytoFlex flow cytometry.

T3 sequence (Q15116 25-288): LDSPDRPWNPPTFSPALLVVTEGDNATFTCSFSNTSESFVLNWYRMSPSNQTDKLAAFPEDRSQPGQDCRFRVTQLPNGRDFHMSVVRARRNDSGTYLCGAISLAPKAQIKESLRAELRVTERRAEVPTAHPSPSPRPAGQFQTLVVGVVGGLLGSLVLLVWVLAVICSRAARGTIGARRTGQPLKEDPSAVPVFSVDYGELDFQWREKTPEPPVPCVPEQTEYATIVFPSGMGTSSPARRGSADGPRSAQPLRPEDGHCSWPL
T6 sequence (P25942 21-277): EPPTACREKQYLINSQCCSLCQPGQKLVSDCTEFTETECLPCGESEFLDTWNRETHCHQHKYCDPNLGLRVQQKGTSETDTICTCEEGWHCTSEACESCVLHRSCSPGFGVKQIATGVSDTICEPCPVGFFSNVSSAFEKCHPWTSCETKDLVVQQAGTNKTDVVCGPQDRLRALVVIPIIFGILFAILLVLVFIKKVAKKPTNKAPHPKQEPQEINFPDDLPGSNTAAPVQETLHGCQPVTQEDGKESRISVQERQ

B1: TY21691 (antibody, V domains shown)
VH: EVQLVESGGGLVQPGGSLRLSCAASGFTFSDYAIHWVRQAPGKGLEWIGIISPSGGSTKYAQKFQGRVTISRDNSKNTLYLQLNSLRAEDTAVYYCARLGYGYFDVWGQGTLVTVSS
VL: DIQLTQSPSSLSASVGDRVTITCRASQSVDFYGISFLHWYQQKPGKAPKLLIYDASSLESGVPSRFSGSGSGTDFTLTISSLQPEDFATYYCVQALQLPLTFGQGTKVEIK
notes: human IgG1 (hIgG1) from Fab hit B15736
As to B1, in test [1], the “EC50 for TCR/CD28 pathway activation (luciferase reporter, CTLA4 blockade bioassay)” value was determined as 2.64 µg/mL. For the same molecule, the “IC50 (read off the curve)” value in test [2] is ~20 nM. The binding result in test [3] and in test [4] was “no binding (tested: 100 nM)” in each case.

B2: TY21687 (antibody, V domains shown)
VH: EVQLVESGGGLVQPGGSLRLSCAASGFTFSGYAIHWVRQAPGKGLEWIGIISPSGGGTKYAQKFQGRVTISRDNSKNTLYLQLNSLRAEDTAVYYCARHPFAYWGQGTLVTVSS
VL: DIQLTQSPSSLSASVGDRVTITCRASQSVDFYGISFLDWYQQKPGKAPKLLIYDASNRATGIPSRFSGSGSGTDFTLTISSLQPEDFATYYCQQYVSSPPEYTFGQGTKVEIK
notes: human IgG1 (hIgG1) from Fab hit B15700
As for B2, the “% of cells in upper right quadrant (Q2)” value in test [5] was determined as 75.7%. Further, in test [1], the “EC50 for TCR/CD28 pathway activation (luciferase reporter, CTLA4 blockade bioassay)” value was determined as 5.01 µg/mL. The binding result in test [6] is on record as “no binding (tested: 100 nM)”. Moreover, the “IC50 (read off the curve)” value in test [2] was ~10 nM.

B3: TY21585 (antibody, V domains shown)
VH: EVQLVESGGGLVQPGGSLRLSCAASGFTFSDYAIHWVRQAPGKGLEWIGIISPSSGSTNYAQKFQGRVTISRDNSKNTLYLQLNSLRAEDTAVYYCARDIHSGSSGYYYGFDVWGQGTLVTVSS
VL: B2 VL with Q27E, Y32F, D38A, Q94H, V96T, E101V
notes: human IgG1 (hIgG1) from Fab hit B15709
B3: the “% of cells in upper right quadrant (Q2)” value in test [5] was determined as 36.3. The “Mean” value in test [5] came to 6190. In addition, the binding result in test [7], in test [6], in test [3] and in test [4] was “no binding (tested: 100 nM)” each time. In addition, the “% of cells in upper right quadrant (CD86-positive) in the presence of the antibody” value in test [8] was found to be 3.43%. For the same molecule, the “Mean of the CD86 binding signal in the presence of the antibody” value in test [8] is 5140.

B4: TY21591 (antibody, V domains shown)
VH: EVQLVESGGGLVQPGGSLRLSCAASGFSLSTGGVAVSWIRQAPGKGLEWIGEIYHSGSTYYSPSLKSRVTISRDNSKNTLYLQLNSLRAEDTAVYYCARRIATATYFDYWGQGTLVTVSS
VL: DIQLTQSPSSLSASVGDRVTITCRASQTVFSRYLAWYQQKPGKAPKLLIYDASNRATGIPSRFSGSGSGTDFTLTISSLQPEDFATYYCQQSYYWPPWTFGQGTKVEIK
notes: human IgG1 (hIgG1) from Fab hit B15756
Consider B4, for which, in test [7], the binding result is reported as “no binding (tested: 100 nM)”. In test [8], the “% of cells in upper right quadrant (CD86-positive) in the presence of the antibody” value worked out at 0.61% and the “Mean of the CD86 binding signal in the presence of the antibody” value is 4960.
